Series [1] has as its target T1, human Kv1.1 (huKv1.1) (Homo sapiens, UniProt Q09470).
T1 construct: expressed in transfected cells; host or cells: Freestyle CHO-S
As to the kind of experiment: QPatch automated patch-clamp, CHO-S cells expressing huKv1.1 (Examples 20-21). In kind it is cell-based. To be noted: four-point curves of FIG. 33, Table E20. The procedure:
1. The effect of these KnotBodies on cells expressing human Kv1.1 (huKv1.1) and Kv1.3 (huKv1.3) channels was assessed using QPatch automated patch-clamp platform (Sophion).
To generate huKv1.1 expressing cells, Freestyle CHO-S cells (Cat. no. R80007, Life Technologies, California, USA) were transfected with pINT50-Tr plasmid encoding huKv1.1 gene using the MaxCyte STX (MaxCyte) transfection system. In pINT50-Tr plasmid, huKv1.1 gene is under the control of a CMV promoter. 64 µg of the plasmid DNA were added to 400 µl of Freestyle CHO-S cells (at a density of 1 × 10^8 cells/ml) in Electroporation Buffer (GE Healthcare Life Sciences, Cat. no. EPB1) in an OC-400 processing assembly (MaxCyte). Following electroporation, the cells were transferred to a well of a 24-well plate containing 200 U/ml DNAse I (Sigma, D4263) and incubated for 20 minutes at 37° C. and 5% CO2. The cells were then transferred into a 100 ml shaker flask containing 20 ml of CD Opticho Media (Thermo Fisher Scientific, Cat.No 12681-011,) supplemented with 8 mM L-Glut (Thermo Fisher Scientific, cat. no. 25030-024). The cells were incubated for 24 hours at 37° C. and 5% CO2 (and 75% humidity and shaking at 800 rpm) prior to testing using automated patch clamp electrophysiology.
For the testing of Kv1.1 and Kv1.3, CHO-S expressing huKv1.1 (described above) or CHO cells stably expressing huKv1.3 (Charles River Lab) were analysed using the QPatch electrophysiology assay in the presence or absence of the KnotBody fusions. Internal and external physiological solutions were freshly prepared prior to the assay. The extracellular solution contained 145 mM NaCl, 4 mM KC1, 2 mM CaC12, 1 mM MgC12, 10 mM HEPES and 10 mM glucose; the pH was adjusted to 7.4 with NaOH; the osmolarity was ~ 305 mOsm/L. The intracellular solution contained: KF (120 mM), KC1 (20 mM), HEPES (10 mM) EGTA (10 mM); the pH was adjusted to 7.2 with KOH; osmolarity was ~ 300 mOsm/L.
A series of depolarising voltage (channel activating) pulses were used to monitor the channel currents upon adding control (extracellular solution) to define a control baseline of current activity. To these measured control currents four, ascending concentrations of KnotBodies (including previously described KB_A12_ShK and KB_A12_KTX described in Example 8) or parental antibody isotypes (control molecules) were applied to the external bathing solution. KnotBodies KB_A12 and KB_A07 (EETI-II fusions) were used as isotype controls for the testing. From a holding voltage of -80 mV a depolarising, activating voltage pulses of […] were applied for 300 ms, every 10 seconds. The elicited, maximum outward current values measured during the activating step for each solution exchange period, averaged (n = 3 - 6 for each concentration applied) and plotted as concentration-response curves (see FIG. 33). From these concentration-response curves IC50 values were calculated (see Table E20).
For the testing of Kv1.1 and Kv1.3, CHO-S expressing huKv1.1 (see Example 20 and below) or CHO cells stably expressing huKv1.3 (Charles River Lab) were analysed using the QPatch electrophysiology assay in the presence or absence of the KnotBody fusions - see details in Examples 19 and 20.
In addition to the CHO-S transiently expressing huKv1.1 (described in Example 20), CHO-S cells with poly-clonal stable expression of huKv1.1 cells were also made and used in the QPatch electrophysiology assay. To generate the polyclonal stable huKv1.1 cells from the transiently expressing cells described in Example 20, after a 24 hour incubation period the selection antibiotic Puromycin (catalogue no. A1 1138-03, Life Technologies, California, USA) was added to culture media. Then, for the first 14 days puromycin was at 10 µg ml-1 media; at days 15-28 puromycin was at 20 µg ml-1 media. Cell cultures were seeded at 2.5 x 10^5 cells ml^-1 into fresh culture media and puromycin twice per week through this selection growth period. […]
On the technique in general: Patch clamp records ionic current or voltage across a cell membrane.

Series [2] deals with in vitro rat BBB model. As to the kind of experiment: In vitro rat BBB model transcytosis, sandwich ELISA of Fab in lower chamber. It counts as in vitro ADME. The conditions noted are these: test Fabs as oligoclonal mixes of 3 per well at 2 µM, controls 1 µM, value is per well. The procedure: In order to assess the ability of these KnotBodies to cross the BBB, a ready to use in vitro rat BBB model system (Pharmacocell, Cat. No. RBT-24H) was used. In this model system rat brain endothelial cells were co-cultured with pericytes and astrocytes to mimic the in vivo BBB anatomy (Nakagawa, S. et al. (2009) Neurochem. Int. 54, 253-263). The in vitro rat BBB kit was cultured according to manufacturer’s instructions and transendothelial electrical resistance (TEER) was measured prior to testing of KnotBodies to verify the integrity of the barrier. […] 21 KnotBody Fabs were tested for their ability to cross the in vitro BBB model system. […] The parent KnotBody KB_A12 was used as a negative control. Both positive and negative controls were expressed and purified in the Fab format as described above. […] The concentration of transcytosed Fabs in the lower chamber (referred as brain side) was determined using a sandwich ELISA. In this ELISA, Fabs were captured using an anti-CH1 antibody (provided by Hybridoma Reagent Laboratories) and detected using rabbit anti-human IgG Kappa light chain antibody (Abcam, Cat. No. ab195576) or anti-human IgG Lambda light chain antibody (Abcam, Cat. No. ab124719) followed by europium conjugated anti-rabbit antibody (Perkin Elmer, Cat. No. AD0105). […]
For orientation: In an ELISA, binding on a coated surface is turned into a signal by an enzyme label.

One may read the IC50 as the concentration that gives 50% inhibition. A high value points to lower potency.

T1 sequence (Q09470 whole entry): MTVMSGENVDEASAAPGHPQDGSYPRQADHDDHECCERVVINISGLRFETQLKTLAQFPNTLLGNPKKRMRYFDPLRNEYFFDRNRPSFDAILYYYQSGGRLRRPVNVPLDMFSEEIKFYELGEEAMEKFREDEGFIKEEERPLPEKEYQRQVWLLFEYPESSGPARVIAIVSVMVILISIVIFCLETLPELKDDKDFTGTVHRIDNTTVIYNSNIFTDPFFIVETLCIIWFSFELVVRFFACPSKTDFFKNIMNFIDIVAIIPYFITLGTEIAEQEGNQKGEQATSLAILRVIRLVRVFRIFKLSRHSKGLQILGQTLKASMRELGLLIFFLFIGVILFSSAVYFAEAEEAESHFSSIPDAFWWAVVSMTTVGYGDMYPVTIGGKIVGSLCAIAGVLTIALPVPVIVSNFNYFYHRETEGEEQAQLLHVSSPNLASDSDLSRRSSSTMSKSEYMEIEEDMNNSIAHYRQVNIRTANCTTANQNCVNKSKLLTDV

B1: KB_A12_ShK: ShK toxin in VL CDR2 of KB_A12, IgG1 (antibody, V domains shown)
VH: EVQLVESGGGLVRPGGSLRLSCAASGFTFSSYAMSWVRQAPGKGLEWVSAISGSGGSTYYADSVKGRFTISRDNTKNSLYLQMTSLRADDTAFYYCVKDFGPGYGTGWFDYWGPGTLVTVSS
VL: QSVLTQPPSVSEAPRQRVTITCSGSSSNIGNNAVNWYQQLPGKAPKLLIYAAGRRSCIDTIPKSRCTAFQCKHSMKYRLSFCRKTCGTCANSGVSDRFSAAKSGTSASLAINGLRSEDEADYYCAAWDDSLNGYVFGTGTKLTVLG
The molecule B1 had an IC50 in series [1] of 40 nM.

B2: KB_A12: EETI-II knottin fused into VL CDR2, D1A12 VH; parental KnotBody, isotype control (antibody, V domains shown)
VH: B1 VH
VL: QSVLTQPPSVSEAPRQRVTITCSGSSSNIGNNAVNWYQQLPGKAPKLLIYAAGRCPRILMRCKQDSDCLAGCVCGPNGFCGANSGVSDRFSAAKSGTSASLAINGLRSEDEADYYCAAWDDSLNGYVFGTGTKLTVLGQP
As to B2, in series [2], the “% transcytosis after 6h” value is 0.1%.

These data come from patent US20230331827A1, “POTASSIUM CHANNEL INHIBITORS” (priority 2017, published 2023).
